From paper PMC7062188, “The crystal structure of human forkhead box N1 in complex with DNA reveals the structural basis for forkhead box family specificity”

Tests used:
FOXN1 1-614 [1] = biological target: T1, FOXN1 1-614 (human, UniProt O15353 1-614); test: EMSA; apparent Kd; EMSA: 50 mM Tris-HCl pH 7.5, 25 mM NaCl, 0.5 mM EDTA, 0.1% Tween 20, 2 mM DTT, 5% glycerol, 30 min room temperature; FP: 10 mM HEPES pH 7.5, 50 mM NaCl, 1 mM TCEP, 10 nM probe; conditions: protein: recombinant; tags: His tag (pNIC28-Bsa4), cleaved with TEV; label: 32P on forward strand (5', T4 PNK); blunt
T1 sequence: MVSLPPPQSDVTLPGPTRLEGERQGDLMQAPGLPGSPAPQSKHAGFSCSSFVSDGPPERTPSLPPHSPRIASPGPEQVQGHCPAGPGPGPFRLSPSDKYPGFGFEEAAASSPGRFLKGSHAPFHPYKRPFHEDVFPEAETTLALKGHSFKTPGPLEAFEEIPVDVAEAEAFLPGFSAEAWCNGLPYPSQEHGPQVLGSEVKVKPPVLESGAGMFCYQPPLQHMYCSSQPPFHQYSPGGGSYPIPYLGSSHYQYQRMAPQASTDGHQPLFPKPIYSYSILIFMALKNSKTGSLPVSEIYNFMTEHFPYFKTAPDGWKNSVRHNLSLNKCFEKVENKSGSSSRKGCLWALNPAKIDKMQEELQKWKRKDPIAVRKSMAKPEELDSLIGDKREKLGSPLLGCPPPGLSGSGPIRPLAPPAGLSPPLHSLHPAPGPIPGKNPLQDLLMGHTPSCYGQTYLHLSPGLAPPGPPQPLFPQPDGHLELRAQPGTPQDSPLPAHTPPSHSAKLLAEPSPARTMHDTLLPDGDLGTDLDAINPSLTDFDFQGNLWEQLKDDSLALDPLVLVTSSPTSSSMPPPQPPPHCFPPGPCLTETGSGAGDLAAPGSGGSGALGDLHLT

FOXN1 1-614 [2] = biological target: T1, FOXN1 1-614; test: fluorescence polarization; EMSA: 50 mM Tris-HCl pH 7.5, 25 mM NaCl, 0.5 mM EDTA, 0.1% Tween 20, 2 mM DTT, 5% glycerol, 30 min room temperature; FP: 10 mM HEPES pH 7.5, 50 mM NaCl, 1 mM TCEP, 10 nM probe; conditions: protein: recombinant; tags: His tag (pNIC28-Bsa4), cleaved with TEV; label: 3' FITC on strand 1; blunt
FOXN1 1-614 [3] = biological target: T1, FOXN1 1-614; test: EMSA; apparent Kd; multiple shifted species; EMSA: 50 mM Tris-HCl pH 7.5, 25 mM NaCl, 0.5 mM EDTA, 0.1% Tween 20, 2 mM DTT, 5% glycerol, 30 min room temperature; FP: 10 mM HEPES pH 7.5, 50 mM NaCl, 1 mM TCEP, 10 nM probe; conditions: protein: recombinant; tags: His tag (pNIC28-Bsa4), cleaved with TEV; label: 32P on forward strand (5', T4 PNK); blunt
FOXN1 forkhead domain [4] = biological target: T2, FOXN1 forkhead domain (human, UniProt O15353 270-366); test: EMSA; no significant binding over the concentration range tested; EMSA: 50 mM Tris-HCl pH 7.5, 25 mM NaCl, 0.5 mM EDTA, 0.1% Tween 20, 2 mM DTT, 5% glycerol, 30 min room temperature; FP: 10 mM HEPES pH 7.5, 50 mM NaCl, 1 mM TCEP, 10 nM probe; conditions: protein: recombinant; tags: His tag (pNIC28-Bsa4), cleaved with TEV; label: 32P on forward strand (5', T4 PNK); blunt
T2 sequence: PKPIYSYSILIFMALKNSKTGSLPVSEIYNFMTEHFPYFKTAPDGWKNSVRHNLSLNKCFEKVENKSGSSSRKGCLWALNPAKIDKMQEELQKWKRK

FOXN1 forkhead domain [5] = biological target: T2, FOXN1 forkhead domain; test: X-ray crystallography; 1.6 A structure; crystals at pH 4.5; EMSA: 50 mM Tris-HCl pH 7.5, 25 mM NaCl, 0.5 mM EDTA, 0.1% Tween 20, 2 mM DTT, 5% glycerol, 30 min room temperature; FP: 10 mM HEPES pH 7.5, 50 mM NaCl, 1 mM TCEP, 10 nM probe; conditions: protein: recombinant; tags: His tag (pNIC28-Bsa4), cleaved with TEV; blunt

B1: tandem FKH EMSA probe (dsDNA)
DNA 1: AGCATAAACAACAGAGCGATAAACCAGG
DNA 2: CCTGGTTTATCGCTCTGTTGTTTATGCT
Work on B1 yielded a Kd (FOXN1 1-614 [1]) of 205 ± 21 nM.

B2: tandem FKH FP probe (dsDNA)
DNA 1: GCAGCATAAACAACAGAGCGATAAACCAGGG
DNA 2: CCCTGGTTTATCGCTCTGTTGTTTATGCTGC
For B2, the Kd (FOXN1 1-614 [2]) was 85 ± 11 nM.

B3: PSMA7 tandem FHL EMSA probe (dsDNA)
DNA 1: GCAGCAGACGCAACAGAGCGAGACGCCAGGG
DNA 2: CCCTGGCGTCTCGCTCTGTTGCGTCTGCTGC
B3 was tested, and the Kd (FOXN1 1-614 [3]) was 82 ± 8 nM and the binding result (FOXN1 forkhead domain [4]) was “no binding”.

B4: tandem FHL FP probe (dsDNA)
DNA 1: GCAGCAGACGCAACAGAGCGAGACGCCAGGG
DNA 2: CCCTGGCGTCTCGCTCTGTTGCGTCTGCTGC
In the case of B4, the Kd (FOXN1 1-614 [2]) is reported as 38 ± 3.3 nM.

B5: Psmb11 FHL 13-mer (dsDNA)
DNA 1: TGAAGACGCCACC
DNA 2: GGTGGCGTCTTCA
B5: binds (FOXN1 forkhead domain [5]).
